Data reported in the supplement of paper PMC9876800.

Test system: peptide library, one residue held at a place counted from the S/T acceptor
Assay: relative phosphorylation of the sub-library (ratio to the mean residue at this position); higher = residue favoured
How it was run: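 Each biotinylated degenerate peptide sub-library fixed one residue at one position around a central Ser/Thr and was incubated with a purified recombinant kinase, a human or orthologue construct, in 384-well plates. The 90 min reactions, under kinase-specific conditions, contained 50 μM peptide and 50 μM ATP spiked with γ-32P-ATP. Phosphorylation was read by phosphorimaging spots on streptavidin membranes and quantifying them by densitometry. Relative sub-library phosphorylation expresses each value as a ratio to the mean residue at that position.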

Chain of MARK2, construct: Full length, human (Q7KZI7 whole entry, looked up): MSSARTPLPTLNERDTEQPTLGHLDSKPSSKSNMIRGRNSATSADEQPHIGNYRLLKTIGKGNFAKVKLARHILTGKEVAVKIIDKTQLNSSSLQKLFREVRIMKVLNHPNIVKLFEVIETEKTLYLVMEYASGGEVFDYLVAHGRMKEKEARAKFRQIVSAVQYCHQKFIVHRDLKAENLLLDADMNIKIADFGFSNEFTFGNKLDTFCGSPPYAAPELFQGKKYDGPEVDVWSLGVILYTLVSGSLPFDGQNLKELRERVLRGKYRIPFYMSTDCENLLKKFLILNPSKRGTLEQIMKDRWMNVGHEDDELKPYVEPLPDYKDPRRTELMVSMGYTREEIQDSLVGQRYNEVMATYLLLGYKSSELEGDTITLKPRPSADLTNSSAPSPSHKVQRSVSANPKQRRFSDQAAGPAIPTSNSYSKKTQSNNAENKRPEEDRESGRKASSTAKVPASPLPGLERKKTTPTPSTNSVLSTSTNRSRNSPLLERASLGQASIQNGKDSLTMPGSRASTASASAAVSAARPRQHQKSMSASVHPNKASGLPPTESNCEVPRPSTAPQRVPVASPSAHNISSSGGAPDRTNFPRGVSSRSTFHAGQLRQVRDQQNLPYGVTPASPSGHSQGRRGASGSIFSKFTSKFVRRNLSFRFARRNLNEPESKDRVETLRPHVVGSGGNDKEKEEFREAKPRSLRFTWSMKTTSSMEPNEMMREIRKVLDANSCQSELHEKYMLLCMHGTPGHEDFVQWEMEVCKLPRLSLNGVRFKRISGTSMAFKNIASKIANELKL
Chain of MARK4, construct: Full length, human (Q96L34 whole entry, looked up): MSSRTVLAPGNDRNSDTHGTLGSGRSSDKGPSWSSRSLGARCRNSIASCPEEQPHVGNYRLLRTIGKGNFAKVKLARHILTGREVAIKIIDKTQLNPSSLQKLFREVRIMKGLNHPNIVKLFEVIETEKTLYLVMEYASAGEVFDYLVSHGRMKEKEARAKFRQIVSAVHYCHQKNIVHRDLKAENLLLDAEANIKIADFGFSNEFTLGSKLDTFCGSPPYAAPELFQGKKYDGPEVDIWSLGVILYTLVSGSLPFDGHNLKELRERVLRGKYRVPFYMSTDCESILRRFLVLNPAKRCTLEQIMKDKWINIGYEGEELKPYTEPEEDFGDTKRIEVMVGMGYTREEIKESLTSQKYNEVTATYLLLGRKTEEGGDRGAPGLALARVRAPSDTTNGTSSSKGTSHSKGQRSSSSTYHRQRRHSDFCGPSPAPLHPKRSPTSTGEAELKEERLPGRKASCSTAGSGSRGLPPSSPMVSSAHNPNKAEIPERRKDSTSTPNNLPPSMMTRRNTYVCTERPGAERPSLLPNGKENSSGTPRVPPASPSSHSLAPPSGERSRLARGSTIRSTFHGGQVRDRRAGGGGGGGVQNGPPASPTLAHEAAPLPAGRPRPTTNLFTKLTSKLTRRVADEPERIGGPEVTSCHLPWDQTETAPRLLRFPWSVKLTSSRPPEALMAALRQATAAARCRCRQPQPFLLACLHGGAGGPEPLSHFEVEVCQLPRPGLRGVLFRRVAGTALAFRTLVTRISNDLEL

MARK2, construct: Full length, human (from UniProt Q7KZI7)
relative phosphorylation
Details	at +1	at +2	at +3	at +4	at -1	at -2	at -3	at -4	at -5
A fixed	0.661	0.734	0.723	0.42	1.08	2	0.814	1.24	1.05
D fixed	0.564	0.774	2.49	0.401	0.73	0.399	0.458	0.956	0.844
E fixed	0.799	1.09	0.957	0.353	0.654	0.338	0.52	0.924	0.899
F fixed	0.754	0.856	0.934	0.625	0.534	1.35	0.897	0.947	1.07
G fixed	0.6	0.488	0.517	0.388	2.43	1.32	0.775	1.16	0.977
H fixed	0.796	1.06	1.35	0.44	0.834	1.29	1.3	1.11	0.947
I fixed	1.16	0.984	0.682	3.42	0.568	0.511	0.548	0.635	0.932
K fixed	0.738	0.476	0.474	0.271	1.45	0.982	1.86	1.3	1.16
L fixed	1.22	1.16	0.965	5.46	0.755	0.456	0.56	0.727	1.51
M fixed	2.28	1.12	0.896	1.64	0.936	0.711	0.911	0.911	1.11
N fixed	1.12	1.15	2.48	0.37	1.05	0.698	0.734	1.01	0.846
P fixed	0.387	0.616	0.222	0.3	1.24	0.475	0.839	0.884	0.759
Q fixed	1.81	1.2	0.956	0.263	1.26	0.619	0.785	0.933	0.8
R fixed	0.846	0.624	0.454	0.192	1.21	0.926	3.26	1.35	1.3
V fixed	1.52	1.02	0.675	1.55	0.831	0.677	0.544	0.687	0.754
W fixed	0.852	2.63	1.14	0.444	0.674	2.61	1.36	1.28	1.14
Y fixed	0.898	1.02	1.08	0.464	0.77	1.64	0.842	0.947	0.909
pThr fixed	1.29	0.81	0.381	0.287	0.37	0.438	0.518	0.756	0.656
pTyr fixed	0.584	0.583	0.681	0.283	0.688	0.498	0.656	0.746	0.791

MARK4, construct: Full length, human (from UniProt Q96L34)
relative phosphorylation
Details	at +1	at +2	at +3	at +4	at -1	at -2	at -3	at -4	at -5
A fixed	0.923	1	0.855	0.686	1.2	1.82	0.932	1.32	1.32
D fixed	0.605	0.8	1.94	0.629	0.694	0.498	0.552	0.801	0.875
E fixed	0.864	1.08	0.886	0.529	0.582	0.447	0.522	0.844	0.676
F fixed	0.652	0.854	0.919	0.788	0.472	1.08	0.91	0.875	1.03
G fixed	0.706	0.562	0.687	0.611	2.59	1.62	0.951	1.32	1.15
H fixed	0.956	1.01	1.45	0.652	0.868	1.26	1.25	1.11	0.977
I fixed	0.933	0.829	0.653	2.53	0.464	0.599	0.572	0.61	0.818
K fixed	0.83	0.707	0.627	0.517	1.64	0.884	1.65	1.34	1.33
L fixed	1.11	1.14	0.857	4.02	0.668	0.479	0.692	0.726	1.27
M fixed	1.89	0.973	0.879	1.41	0.756	0.62	0.881	1.04	0.969
N fixed	1.17	1.02	2.69	0.601	0.982	0.718	0.695	0.913	0.753
P fixed	0.372	0.785	0.344	0.587	1.37	0.709	1.08	1.1	0.893
Q fixed	1.74	1.11	0.894	0.576	1.3	0.6	0.751	0.775	0.81
R fixed	1.12	0.826	0.592	0.41	1.36	0.97	2.57	1.34	1.2
V fixed	1.29	0.872	0.634	1.27	0.721	0.682	0.634	0.711	0.972
W fixed	0.9	2.44	0.961	0.58	0.581	2.41	1.42	1.17	1.13
Y fixed	0.94	0.991	1.13	0.6	0.758	1.6	0.938	1	0.819
pThr fixed	0.858	0.855	0.4	0.541	0.428	0.577	0.542	0.786	0.706
pTyr fixed	0.58	0.648	0.716	0.471	0.618	0.611	0.636	0.802	0.681
